The results in this text go back to patent US20230414780A1 (VECT HORUS, published 2023).

The term koff denotes a measure of how fast the partners let go of each other. The kon is the rate constant with which the complex forms.

The target in assay [1] is T1, human TfR ectodomain fused to a mouse IgG1 Fc fragment (human, UniProt P02786 89-760).
T1 construct: extracellular domain; ectodomain fused to the N-terminal end of the Fc, made in-house; not shown: mouse IgG1 Fc fragment
Put plainly: SPR, kinetic. The method in brief:
(§1)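 TfR–mouse Fc fusions, produced in-house, captured on HC 1500M or CM5 chips either directly or via immobilized anti-mouse IgG. VHHs injected in single-cycle or multiple-cycle kinetic mode on Biacore T200.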
For orientation: In SPR one partner is held on a chip, and binding of the other changes the refractive index at the surface.

Assay [2] addresses T2, mouse transferrin receptor (mTfR) fused to EGFP, on CHO cells (mouse, UniProt Q62351 1-763).
T2 construct: whole, on cells; also called mouse TfR; CHO-mTfR-EGFP; not shown: EGFP
Put plainly: flow cytometry, CHO cells. The method, then:
The binding properties of VHHs with affinity for the TfR from different species (i.e., human (h), mouse (m) and rhesus monkey (rh)) were tested using flow cytometry, and apparent affinities (Kd app) were determined. All experiments were performed in 96 well plates using 2×10⁵ cells/well, at 4° C. with shaking. CHO cell lines expressing the hTfR, mTfR or rhTfR fused to EGFP were saturated with PBS/BSA 2% solution during 30 min to avoid nonspecific binding, followed by incubation with purified VHHs at increasing concentrations for 1 hr. After one wash in PBS/BSA 2%, cells were incubated for 1 hr with an anti-6His tag antibody (mouse), washed twice with PBS/BSA 2%, and incubated for 1 hr with an Alexa647-conjugated anti-mouse secondary antibody. After two last washes in PBS/BSA 2%, cells were fixed by incubation for 15 min with PBS/PFA 2%, washed once with PBS and finally resuspended in PBS. Fluorescence levels were assessed using an Attune NxT flow cytometer (Thermo Fisher Scientific). Experimental data were fitted with GraphPad Prism® software using a nonlinear fit to determine the apparent Kd constants. […] Table 5 hereafter summarizes apparent Kd obtained for the tested VHHs.
(In general: A flow cytometer gives signals particle by particle.)

Assay [3] deals with T3, rhesus monkey transferrin receptor (rhTfR) fused to EGFP, on CHO cells (rhesus monkey).
T3 construct: whole, on cells; also called rhesus monkey TfR
Kind of assay: apparent Kd, flow cytometry, CHO cells. The method in brief: (§2)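 CHO cells expressing TfR-EGFP fusions, blocked in PBS/BSA 2%, then incubated with increasing VHH concentrations for 1 hr at 4° C. Bound VHH detected via anti-6His antibody and Alexa647 secondary, cells PFA-fixed, read by flow cytometry. Apparent Kd from nonlinear fit.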

In assay [4] the target is T4, human transferrin receptor (hTfR) fused to EGFP, on CHO cells (human, UniProt P02786 1-760).
T4 construct: whole, on cells; also called human TfR; CHO-hTfR-EGFP; not shown: EGFP from pEGFP-C1 vector, fused to the N-terminal (intracellular) end of hTfR
T4 sequence (P02786 whole entry, the tested form may be a part): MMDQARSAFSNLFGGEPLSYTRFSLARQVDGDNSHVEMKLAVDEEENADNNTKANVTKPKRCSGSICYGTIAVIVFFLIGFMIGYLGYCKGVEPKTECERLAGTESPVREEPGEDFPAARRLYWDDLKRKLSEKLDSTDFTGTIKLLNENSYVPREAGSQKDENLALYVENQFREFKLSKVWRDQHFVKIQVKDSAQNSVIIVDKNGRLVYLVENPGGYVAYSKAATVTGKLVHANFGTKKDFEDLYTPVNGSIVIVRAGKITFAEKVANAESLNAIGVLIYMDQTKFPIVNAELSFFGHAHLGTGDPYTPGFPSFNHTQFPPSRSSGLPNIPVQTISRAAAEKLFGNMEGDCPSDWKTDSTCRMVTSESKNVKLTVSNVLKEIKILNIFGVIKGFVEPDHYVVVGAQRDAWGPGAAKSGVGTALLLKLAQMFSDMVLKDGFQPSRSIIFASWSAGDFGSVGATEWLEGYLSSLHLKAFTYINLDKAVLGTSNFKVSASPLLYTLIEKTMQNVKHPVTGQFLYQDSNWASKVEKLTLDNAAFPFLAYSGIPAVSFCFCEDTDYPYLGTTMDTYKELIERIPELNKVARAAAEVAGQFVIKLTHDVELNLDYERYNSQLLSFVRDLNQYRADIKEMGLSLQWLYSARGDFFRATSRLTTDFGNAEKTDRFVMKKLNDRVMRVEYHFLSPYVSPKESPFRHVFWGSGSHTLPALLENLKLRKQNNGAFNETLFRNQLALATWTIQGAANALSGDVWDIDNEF
Put plainly: apparent Kd, flow cytometry, CHO cells. The method in brief:
as §2

The target in assay [5] is T1, human TfR ectodomain fused to a mouse …. Put plainly: SPR, at equilibrium. In a few lines: as §1

T2 sequence (Q62351 whole entry, the tested form may be a part): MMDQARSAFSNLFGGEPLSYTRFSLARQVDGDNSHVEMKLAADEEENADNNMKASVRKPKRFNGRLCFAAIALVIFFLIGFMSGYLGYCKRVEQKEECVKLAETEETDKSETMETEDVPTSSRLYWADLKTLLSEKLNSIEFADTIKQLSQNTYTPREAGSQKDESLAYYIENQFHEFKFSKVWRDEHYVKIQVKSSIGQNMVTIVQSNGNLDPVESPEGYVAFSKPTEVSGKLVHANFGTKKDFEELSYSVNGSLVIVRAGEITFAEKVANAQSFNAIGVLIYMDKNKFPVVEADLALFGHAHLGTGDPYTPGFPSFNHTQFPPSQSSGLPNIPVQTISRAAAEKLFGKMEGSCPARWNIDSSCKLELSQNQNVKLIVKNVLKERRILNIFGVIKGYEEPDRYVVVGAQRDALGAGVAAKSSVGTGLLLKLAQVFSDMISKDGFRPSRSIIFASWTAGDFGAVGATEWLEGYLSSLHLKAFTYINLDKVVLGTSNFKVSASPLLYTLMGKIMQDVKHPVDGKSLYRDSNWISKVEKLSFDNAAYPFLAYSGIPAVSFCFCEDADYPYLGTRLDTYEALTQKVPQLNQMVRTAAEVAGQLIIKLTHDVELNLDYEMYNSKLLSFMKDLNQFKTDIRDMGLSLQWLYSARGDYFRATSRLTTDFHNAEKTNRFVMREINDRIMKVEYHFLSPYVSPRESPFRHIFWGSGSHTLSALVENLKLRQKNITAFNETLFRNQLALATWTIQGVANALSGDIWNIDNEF
T1 sequence (P02786 89-760): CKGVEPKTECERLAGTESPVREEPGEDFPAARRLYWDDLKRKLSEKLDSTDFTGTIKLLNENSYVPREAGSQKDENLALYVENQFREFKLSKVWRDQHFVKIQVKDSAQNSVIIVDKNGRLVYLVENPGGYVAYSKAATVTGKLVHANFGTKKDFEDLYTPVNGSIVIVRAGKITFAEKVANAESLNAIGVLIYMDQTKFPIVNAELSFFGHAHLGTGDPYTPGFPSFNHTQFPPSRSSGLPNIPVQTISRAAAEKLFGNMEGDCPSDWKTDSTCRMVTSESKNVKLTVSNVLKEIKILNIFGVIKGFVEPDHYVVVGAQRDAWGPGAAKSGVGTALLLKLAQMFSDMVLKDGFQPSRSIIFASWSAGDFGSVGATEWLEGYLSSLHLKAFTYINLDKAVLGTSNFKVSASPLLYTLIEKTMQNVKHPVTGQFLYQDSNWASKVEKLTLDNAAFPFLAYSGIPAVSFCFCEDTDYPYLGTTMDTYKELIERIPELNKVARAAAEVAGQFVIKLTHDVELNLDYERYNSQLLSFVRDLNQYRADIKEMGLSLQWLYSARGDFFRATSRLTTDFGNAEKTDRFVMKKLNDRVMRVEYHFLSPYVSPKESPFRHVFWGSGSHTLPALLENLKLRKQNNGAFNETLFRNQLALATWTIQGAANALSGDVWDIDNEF

B1: C3 (VHH)
VHH: EVQLVQSGGGLVQAGGSLRLSCAASGRDFSDTSMAWHRQAPGKERLWVAGIRSGSTSTSYADSVKGRFTISRDDAKNTVYLQMDNLTPEDTAVYFCYSKGYWGQGTQVTVSS
In assay [1], B1 gave a Kd of 0.559 nM, a dissociation rate constant (koff) of 0.00249 s⁻¹ and a kon of 5.9e+06 M⁻¹ s⁻¹. Besides, the binding result in assay [2] is “no binding”. Besides, the Kd in assay [3] stood at 4230 nM.

B2: E2 (VHH)
VHH: QVQLVQSGGGLVQAGGSLRLSCAASGSIFSDITLAWHRQIPGKEREWVAGISRSGSPSYRDSVKGRFTISRDNAKNTVFLQMNSLEPEDTGVYYCYSRGYWGQGTQVTVSS
For B2, the binding result in assay [2] was “no binding”. Further, the Kd in assay [4] came out at 2.5 nM.

B3: F2a (VHH)
VHH: EVQLVESGGGLVQPGESLRLSCTASESISIYGVGWYRQAPGEQRVLVAHLKRNGLTEYKDSVKGRFTISRDNARNTIYLEMKNLKPEDTAIYYCNTALGSVLPWGRGTQVTVSS
For the molecule B3, in assay [1], the Kd worked out at 0.545 nM, the koff amounted to 0.000752 s⁻¹ and the association rate constant (kon) came to 1.39e+06 M⁻¹ s⁻¹. In addition, the binding result in assay [2] is recorded as “no binding”. For the same molecule, the Kd in assay [4] was 2.9 nM.

B4: C12b (VHH)
VHH: QVQLVQSGGGLVQPGGSLRLSCAASGFTFSAYAMSWVRQAPGKGRELVASISRTGDGTYYADGMKGRFTISRDNAENTVSLQINSLKPEDTAIYYCGAGINPTKYWGQGTQVTVSS
As to B4, the Kd in assay [5] came out at 2440 nM; in assay [4], 630 nM. In addition, the binding result in assay [2] was “no binding”.

B5: B7 (VHH)
VHH: QVQLVQSGGGLVQAGGSLTLSCTASGRPLSDYPMGWFRRAPEKERELVASISRTGDGTYYADGMRGRFTISRDNSENTVSLQMNNLKPEDTAVYYCGAGINPTKYWGQGTQVTVSS
For the molecule B5, in assay [1], the Kd was 0.652 nM, the koff was 0.000758 s⁻¹ and the kon was 1.16e+06 M⁻¹ s⁻¹. Also, the binding result in assay [2] is reported as “no binding”. Further, the Kd in assay [4] came to 1.9 nM.

B6: VHH C (B6) (VHH)
VHH: EVQLVESGGGLVQPGGSLRLSCTASGGPIEQYPMGWFRRAPGKERELVASISRSGDGTYYAISSVKGRFTISRDNAENTVFLQMNSLKPDDTAVYYCGAGINPTKIWGQGTQVTVSS
In assay [1], B6 came in with a Kd of 0.659 nM, a koff of 0.00121 s⁻¹ and a kon of 1.73e+06 M⁻¹ s⁻¹. In assay [2], the binding result is listed as “no binding”. Moreover, the Kd in assay [4] was found to be 2.1 nM.

B7: B6^V4 (VHH)
VHH: EVQLVESGGGLVQPGGSLRLSCTASGGPIEQYPMGWFRRAPGKERESVASISRSGDGTYYAISSVKGRFTISRDNAENTVFLQMNSLKPDDTAVYYCGAGINPTKIWGQGTQVTVSS
Turning to B7, the binding result in assay [2] is recorded as “no binding”. Besides, in assay [4], the Kd stood at 5.9 nM.

B8: E4 (VHH)
VHH: EVQLVESGGGLVQAGDSLRLSCTASGLPLSNYPMGWFRRAPGKERELIASISRTGDGTYYADSSVKGRFTISRDNAENTVSLQMNSLKPEDTAVYYCGAGINPTKYWGQGTQVTVSS
In assay [1], B8 showed a Kd of 1.25 nM, a koff of 0.00189 s⁻¹ and a kon of 1.51e+06 M⁻¹ s⁻¹. For the same molecule, in assay [2], the binding result is “no binding”. In assay [4], the Kd is 3.1 nM.

B9: B6^V3 (VHH)
VHH: EVQLVESGGGLVQPGGSLRLSCTASGGPIEQYPMGWFRRAPGKERELVASSSRSGDGTYYAISSVKGRFTISRDNAENTVFLQMNSLKPDDTAVYYCGAGINPTKIWGQGTQVTVSS
For the molecule B9, in assay [2], the binding result was “no binding”. For the same molecule, the Kd in assay [4] came out at 2.6 nM.
